For the series, the target named is cardiac troponin I (cTnI) (UniProt P19429 P19429:2-210). The experiment in a line: cTnI-dependent opening of aptamer on magnetic particles, supernatant fluorescence of tagged HTG-H1 falls with cTnI; 0.5 ng/mL not distinguishable from blank; native PAGE HCR products also cTnI-dependent (p77, FIG. 6B); SERRS LOD 0.5 pg/mL in serum (p85), colorimetric hyperbranched HCR LOD 0.117 ng/mL (p104); high-salt buffer 20 mM Tris pH 7.6, 1000 mM NaCl, 5 mM KCl, 2 mM MgCl2, 1 mM CaCl2. The conditions noted are these: tags: Genscript (SERRS studies); label: biotin (on streptavidin magnetic particles).
Chain of cardiac troponin I (cTnI) (P19429 2-210, one chain of several): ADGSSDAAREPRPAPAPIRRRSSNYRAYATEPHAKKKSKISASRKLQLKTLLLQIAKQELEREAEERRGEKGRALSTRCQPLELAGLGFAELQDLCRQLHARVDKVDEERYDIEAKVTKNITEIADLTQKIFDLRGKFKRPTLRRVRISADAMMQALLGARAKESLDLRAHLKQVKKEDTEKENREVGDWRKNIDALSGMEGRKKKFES

B1: locked Tro4 aptamer-initiator (Tro4 + A8 spacer + HCR initiator + blocker) (ssDNA)
DNA: TTTTTCGTGCAGTACGCAACCTTTCTCATGCGCTGCCCCTCTTAAAAAAAAGCAGATCCTAAGCCGCACCCAATTAAGGGGCAGCGCATGAGAAAGGTTCCGTA
For B1, the binding result is “binds”.

Source of the values: patent publication US20250034621, “LOCKED APTAMER HAIRPIN INTEGRATED HYBRIDIZATION CHAIN REACTION FOR RAPID, INSTRUMENT-FREE BIOMARKER DETECTION” (The Texas A&m University System, published 2025).
